Measurements: patent publication US20250186602A1, “HUMANIZED ANTIBODY THAT BONDS TO EVA1 PROTEIN OR FUNCTIONAL FRAGMENT THEREOF, ANTIBODY-DRUG CONJUGATE AND CHIMERIC ANTIGEN RECEPTOR” (CURED INC., priority 2022, published 2025)
Positions count from the first letter of the chain named. “Also recorded” adds a separate entry of the source. Each block holds one molecule with its values, some of them ahead of it.

Columns and labels:
[1] = test system: various tumor cell lines (Eval positive and Eval negative); assay: Cytokine production of Eval-CAR-T co-cultured with tumor cell lines (intracellular staining, flow cytometry); type: cell-based, human; details: co-culture 1:1, 6 hours, Day 17 cells
Procedure: Next, the cytokine production capacity of the Eval-CAR-T using the anti-human Eval mouse antibody sequence was analyzed. Specifically, CAR-T prepared as described above was cultured until day 17, and the cells were co-cultured with various main cell lines in 1:1. After co-culturing for 6 hours, immobilization and intracellular staining (BD cytofix/cytoperm buffer) were conducted to stain the cells with IFN-gamma (IFN-γ).
The experiment was conducted by using the above-described Eval-CAR-Ts at Day 17. Specifically, the Eval-CAR-Ts were co-cultured with tumor cell lines in 1:1, and the cells were immobilized and stained in the same methods as described above after 6 hours, and intracellular IFN-gamma and IL-2 were evaluated with flow cytometry.
(§1) The experiment was conducted by using hEva1-CAR-Ts at Day 17. Specifically, hEva1-CAR-Ts were co-cultured with tumor cell lines in 1:1, and the cells were immobilized and stained in the same manner as described above after 6 hours, and intracellular IFN-gamma and IL-2 were evaluated with flow cytometry. These figures show the percentages at which the cytokine was positive among the CD8 positive cells.
as §1, with “using the above-described” for “using”, “Specifically, the” for “Specifically,”, “after […]” for “after 6”, “which each” for “which the”

Eval-positive HuCCT-1 = assay: Amplification of Eval-CAR-T after antigen stimulation (co-culture with irradiated Eval-positive HuCCT-1); type: cell-based, human
Procedure: Eval-positive HuCCT-1, was irradiated with a radioactive ray of 100 Gy, and was co-cultured with the CAR-Ts in 1:1, and the amplification efficiencies of these were analyzed. In FIG. 3J, amplification efficiencies in time series are shown. In FIG. 3K, the amplification factors at Day 4 were plotted.
In the same manner as described above, Eval-positive HuCCT-1, was irradiated with a radioactive ray of 100 Gy, and was co-cultured with the CAR-T-cells in 1:1. Then, 50 U/ml of IL-2 was added once every three days, at Day 1, 4, and 7, followed by culturing. In FIG. 3L, the respective amplification efficiencies in time series are shown. In FIG. 3M, the amplification factors at Day 18 were plotted.
In the same manner as described above, Eval-positive HuCCT-1, was irradiated with a radioactive ray of 100 Gy, and was co-cultured with hEva1 CAR-T-cells in 1:1.
In the same manner as described above, Eval-positive HuCCT-1, was irradiated with a radioactive ray of 100 Gy, and was co-cultured with hEva1-CAR-Ts in 1:1.

hEva1-mouse Fc [2] = target: T1, hEva1-mouse Fc (human, UniProt O60487 27-154, limits assumed); assay: SPR (BiaCore T200), single-cycle kinetics; antibody captured by anti-human IgG on CM5 chip, hEva1-mouse Fc as analyte; antibody made in HEK293T cells
T1 construct: SPR analyte; the '1' is probably the first concentration (1 nM); also called hEva1-mouse Fc1 (so in the source); not shown: mouse Fc
T1 sequence: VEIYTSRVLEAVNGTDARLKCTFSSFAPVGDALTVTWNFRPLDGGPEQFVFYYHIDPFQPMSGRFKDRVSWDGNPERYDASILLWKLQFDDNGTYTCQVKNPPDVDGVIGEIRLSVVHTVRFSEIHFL
Procedure: (§2) The dissociation constants and association constants of the humanized antibodies and the like were analyzed by using surface plasmon resonance (SPR, product name: BiaCore T200 (manufactured by GE healthcare)).
Specifically, first, human IgG capture antibodies were immobilized on a CM5 chip by an amine coupling method. […] Then, the kinetics analysis on the anti-Eval antibody and hEva1 was conducted by a single-cycle method using the following measurement conditions.

hEva1-mouse Fc [3] = target: T1, hEva1-mouse Fc; assay: SPR (BiaCore T200), single-cycle kinetics; antibody captured by anti-human IgG on CM5 chip, hEva1-mouse Fc as analyte; antibody made in CHO cells
hEva1-mouse Fc [4] = assay: Surface plasmon resonance kinetics analysis (BiaCore T200, single-cycle); type: binding, human; details: SPR, antibody captured 5 nM, analyte hEva1-mouse Fc 1-250 nM, HBS-EP+ pH 7.4
Procedure: as §2
Specifically, first, human IgG capture antibodies were immobilized on a CM5 chip by an amine coupling method. This immobilization was conducted in both reference cells and active cells. Then, the kinetics analysis on the anti-Eval antibody and hEva1 was conducted by a single-cycle method using the following measurement conditions.
• Sample compartment temperature: 10° C. • Running buffer: HBS-EP+buffer, pH 7.4 • Capturing molecule: Human IgG antibody, reference & active cells • Ligand: Various antibodies 5 nM, active cells only • Analyte: hEva1-mouse Fc1, 5, 25, 125, 250 nM, reference & active cells • Regeneration buffer: 3M MgCl2, reference & active cells • 3 cycles of Blanks (Analyte zero concentration)

[5] = 50 U/ml IL-2 at Day 1, 4, 7, co-culture 1:1 with HuCCT-1 irradiated 100 Gy
[6] = absence of IL-2, co-culture 1:1 with HuCCT-1 irradiated 100 Gy

Molecule: 30aa: mouse antibody-derived Eval-CAR-T with spacer length 30aa (SEQ ID NO: 60) (EPKSSDKTHTSPPCPAPEFLGGPSVFLFPP; Hinge region:30aa)
- cytokine production (intracellular IFN-gamma and IL-2) [1]: excellent cytokine productions
- amplification efficiency after Eval stimulation (Eval-positive HuCCT-1; [5]): cell amplifications tended to be better
- amplification efficiency after Eval stimulation (Eval-positive HuCCT-1; [6]): higher cell amplifications

Molecule: 15aa: mouse antibody-derived Eval-CAR-T with spacer length 15aa (SEQ ID NO: 59) (EPKSSDKTHTSPPCP; Hinge region:15aa)
- amplification efficiency after Eval stimulation (Eval-positive HuCCT-1; [5]): cell amplifications tended to be better; also recorded: most excellent in cell growth
- amplification efficiency after Eval stimulation (Eval-positive HuCCT-1; [6]): higher cell amplifications

B1: 232aa: mouse antibody-derived Eval-CAR-T with spacer length 232aa (SEQ ID NO: 63) (protein)
chain: EPKSSDKTHTSPPCPAPEFLGGPSVFLFPPKPKDTLMISRTPEVTCVVVDVSQEDPEVQFNWYVDGVEVHNAKTKPREEQFNSTYRVVSVLTVLHQDWLNGKEYKCKVSNKGLPSSIEKTISKAKGQPREPQVYTLPPSQEEMTKNQVSLTCLVKGFYPSDIAVEWESNGQPENNYKTTPPVLDSDGSFFLYSRLTVDKSRWQEGNVFSCSVMHEALHNHYTQKSLSLSLGK
modifications: Hinge region:232aa
- cytokine production (intracellular IFN-gamma and IL-2) [1]: most excellent cytokine production capacity
- amplification efficiency after Eval stimulation (Eval-positive HuCCT-1; [5]): cell amplifications tended to be better
- amplification efficiency after Eval stimulation (Eval-positive HuCCT-1; [6]): higher cell amplifications; also recorded: most excellent in cell growth and cytokine production

- Kd (hEva1-mouse Fc [2]): 482 nM
- koff (hEva1-mouse Fc [2]): 0.00947 s⁻¹
- kon (hEva1-mouse Fc [2]): 19600 M⁻¹ s⁻¹
- Kd (hEva1-mouse Fc [3]): 445 nM
- koff (hEva1-mouse Fc [3]): 0.00845 s⁻¹
- kon (hEva1-mouse Fc [3]): 19000 M⁻¹ s⁻¹
B2: chimeric human IgG1 (constant regions of the B2E5-48 mouse antibody replaced by those of human IgG type 1) (antibody, V domains shown)
VH: QVQLQQPGAELVKPGASVKLSCKASGYTFTNYWMHWVKLRPGQGFEWIGEINPTNGGTDYNEKFKRKATLTVDKSSSTAYMQLSSLTSEDSAVYYCTIYTTALDYWGQGTTLTVSS
VL: QIVLTQSPALMSASPGERVTLTCSASSSVGYMYWYQQKPGSSPKPWIYVTSNLASGVPARFSGSGSGTSYSLTISSMEAEDAATYYCQQWSSNPPTFGAGTKLELK
notes: Mouse B2E5-48 variable regions on human IgG1 constant regions; The same construct was made in HEK293T cells and in CHO cells and both preparations were measured; also called Chimeric antibody (CHO); Chimeric antibody (293T)

- kd (hEva1-mouse Fc [4]): 0.00947 s⁻¹
B3: Chimeric antibody (293T): chimeric human IgG1 obtained by substituting the constant regions of the B2E5-48 mouse antibody with those of human IgG type 1; control (antibody, V domains shown)
VH: B2 VH
VL: B2 VL
- ka (hEva1-mouse Fc [4]): 19640 M⁻¹ s⁻¹

- kd (hEva1-mouse Fc [4]): 0.008447 s⁻¹
B4: Chimeric antibody (CHO): chimeric human IgG1 obtained by substituting the constant regions of the B2E5-48 mouse antibody with those of human IgG type 1; control (antibody, V domains shown)
VH: B2 VH
VL: B2 VL
- ka (hEva1-mouse Fc [4]): 19010 M⁻¹ s⁻¹

- kd (hEva1-mouse Fc [4]): 0.0138 s⁻¹
B5: H3-L4: humanized B2E5-48 IgG1, VH H3 (SEQ ID NO: 16), VL L4 (SEQ ID NO: 8) (antibody, V domains shown)
VH: QVQLVQSGSELKKPGASVKVSCKASGYTFTNYWMHWVRQAPGQGLEWIGEINPTNGGTDYNEGFTGRFVLSVDKSSSTAYLQISSLKAEDTAVYYCTIYTTALDYWGQGTLVTVSS
VL: DIQLTQSPSFLSASVGDRVTITCRASSSVGYMYWYQQKPGKAPKPLIYVTSNLASGVPSRFSGSGSGTEYTLTISSLQPEDFATYYCQQWSSNPPTFGQGTKLEIK
modifications: Variable Region of Heavy Chain 3 (Humanized B2E5-48); Variable Region of Light Chain 4 (Humanized B2E5-48)
- ka (hEva1-mouse Fc [4]): 15800 M⁻¹ s⁻¹

- kd (hEva1-mouse Fc [4]): 0.01457 s⁻¹
B6: H4-L2: humanized B2E5-48 IgG1, VH H4 (SEQ ID NO: 14), VL L2 (SEQ ID NO: 7) (antibody, V domains shown)
VH: B5 VH with I48M, L70F, S76V
VL: EIVLTQSPATLSLSPGERATLSCRASSSVGYMYWYQQKPGQAPRPLIYVTSNRATGIPARFSGSGSGTDYTLTISSLEPEDFAVYYCQQWSSNPPTFGQGTKLEIK
modifications: Variable Region of Heavy Chain 4 (Humanized B2E5-48); Variable Region of Light Chain 2 (Humanized B2E5-48)
- ka (hEva1-mouse Fc [4]): 18980 M⁻¹ s⁻¹

- kd (hEva1-mouse Fc [4]): 0.01357 s⁻¹
B7: H4-L3: humanized B2E5-48 IgG1, VH H4 (SEQ ID NO: 14), VL L3 (SEQ ID NO: 10) (antibody, V domains shown)
VH: B5 VH with I48M, L70F, S76V
VL: B5 VL with D1Q
modifications: Variable Region of Heavy Chain 4 (Humanized B2E5-48); Variable Region of Light Chain 3 (Humanized B2E5-48)
- ka (hEva1-mouse Fc [4]): 15480 M⁻¹ s⁻¹

- kd (hEva1-mouse Fc [4]): 0.01525 s⁻¹
B8: H4-L4: humanized B2E5-48 IgG1, VH H4 (SEQ ID NO: 14), VL L4 (SEQ ID NO: 8) (antibody, V domains shown)
VH: B5 VH with I48M, L70F, S76V
VL: B5 VL
modifications: Variable Region of Heavy Chain 4 (Humanized B2E5-48); Variable Region of Light Chain 4 (Humanized B2E5-48)
- ka (hEva1-mouse Fc [4]): 15340 M⁻¹ s⁻¹

B9: 125aa: mouse antibody-derived Eval-CAR-T with spacer length 125aa (SEQ ID NO: 62) (protein)
chain: EPKSSDKTHTSPPCPAPEFLGGPSVFLFPPKPKDTLMISRTPEVTCVVVDVSQEDPEVQFNWYVDGVEVHNAKTKPREEQFNSTYRVVSVLTVLHQDWLNGKEYKCKVSNKGLPSSIEKTISKAK
modifications: Hinge region:125aa
- cytokine production (intracellular IFN-gamma and IL-2) [1]: excellent cytokine productions
